Test results from the DeepSol protein solubility set.

Assay: soluble on expression in E. coli; label from the status in PepcDB or PDB records

Soluble on expression in E. coli, not soluble:
GKNLNWDFDANISFNRNKISGLPGDQFAQGWSKADNVFLQRNGMPIGTIYGFVEDGFYDNIAEVRADPFYAKESEAVCKAMVGEVKYKDFDGVAGITNADRQVIGDTNPDFTFGMTHNFTYKNFSLSFFLQGCVGGDIFNANLLEVTMSGIGNIPQNIYESRWTPENRENAKWPKAYAGYGRTMKLSDRYVEDGSYLRMKNINLGYKFISPFKGIESINLFASVSNVFTISGYSWYDPDVNSFGSDASRRGVDLFSYPSSRTFSFGLQCTF
GKPDGKIDYADAVFKGCSDPGYLLGLNNTFRYKNFDLNVYFYGQLDLLKSGSYKDYWIVGSGTMTGVNNLYRGYNMPTSAKEVWSHDNTSGKMPGYFQYMSNYGYGDYFLEKSWFIRCRNITLGYTLPVKSAKKLVSNVRIYADVNNLFTITPYDGLDVETDDSYWAYPNVRSFSIGLDITF
GKTVSVFGETCATPVGPAAGPHTQLAQNIVTSWLTGGRFIELKTVQILDRLELEKPCIDAEDECFNTEWSTEFTLLKAWDEYLKAWFALHLLEAMFQPSDSGKSFIFNMSVGYNLEGIKQPPMQQFIDNMMDASDHPKFAQYRDALNKLLQNEAFLARHGLQEKRESLQALPARIPTSMVQGVTLSTMHGCPPHEIEAICRYMLEEKGLNTFVKLNPTLLGYARVREILDVCGFGYIGLKEESFDHDLKLTQALEMLERLMALAKEKSLGFGVKLTNTLGTINNKGALPGEEMYMSGRALFPLSINVAAVLSRAFDGKLPISYSGG

Soluble on expression in E. coli, soluble:
GLLDLKSMIEKVTGKNALTNYGFYGCYCGWGGRGTPKDGTDWCCWAHDHCYGRLEEKGCNIRTQSYKYRFAWGVVTCEPGPFCHVNLCACDRKLVYCLKRNLRSYNPQYQYFPNILCS
GLVLPHTEFQPAPKQDSSPHLTSQRPVDMVQLLKKYPIVWQGLLALKNDTAAVQLHFVSGNNVLAHRSLPLSEGGPPLRIAQRMRLEATQLEGVARRMTVETDYCLLLALPCGRDQEDVVSQTESLKAAFITYLQAKQAAGIINVPNPGSNQPAYVLQIFPPCEFSESHLSRLAPDLLASISNISPHLMIVIASV
GLVPRGSHMTGRMLTLDGNPAANWLNNARTKWSASRADVVLSYQQNNGGWPKNLDYNSVGNGGGGNESGTIDNGATITEMVFLAEVYKSGGNTKYRDAVRKAANFLVNSQYSTGALPQFYPLKGGYSDHATFNDNGMAYALTVLDFAANKRAPFDTDVFSDNDRTRFKTAVTKGTDYILKAQWKQNGVLTVWCAQHGALDYQPKKARAYELESLSGSESVGVLAFLMTQPQTAEIEQAVRAGVAWFNSPRTYLEGYTYDSSLAATNPIVPRAGSKMWYRFYDLNTNRGFFSDRDGSKFYDITQMSLERRTGYSWGGNYGTSIINFAQKVGYL
GMENIEYVFEDVVRIYDTDAQGIAHYAAYYRFFTNTIEKFIKEKVGIPYPIVNENLWFVIAESHAIYHRPVKLGDKLTVLLNPKILSNKTIKFEFKVLKDGELTTEGYVIQIAINPKIWKSTEMPKEIMDKLSIK
GMENIPFLRASTVPVIEYLDELKEIDASHIYTNYGPINQRFEQTIMSGFFQNRGAVTTVANATLGLMAAIQLKKRKKGKYALMPSFTFPATPLAAIWCGLEPYFIDISIDDWYMDKTVLWDKIEELKEEVAIVVPYATFGSWMNLEEYEELEKKGVPVVVDAAPGFGLMNGGMHYGQDFSGMIIYSFHATKPFGIGEGGLIYSKNEEDIQRIKRMGNFGFDTNRECTMMGFNCKMSEYAAAIGIATMKKWDDKLKERTRISEWYKQLLQSNGLMKKGWQLQKTEAVIQQFMPILCPEEVRNKQVIEDLKKQKIEARLYFSPSCHQQVLFRNYKSTDLTRTNKIAKRIVSLPLWEGMTKEIVEQIVICLGQKVVSADE
GMFAGSIPMYIRVVSITAQSKLQFDMTVTYFENVWSPKVISLGAISAEFVQSNENSGMYIIHYPDKQTAISVFDKIKPEVDEVRTQNRIQITEGKRLFRVD
GMGGAALPDNGWPADRIDTESAHSARIYDYIIGGKDYYPADKEAGDAMSREWPALPVHMRANRDWMNRAVAHLAKEAGIRQFLDIGTGIPTSPNLHEIAQSVAPESRVVYVDNDPIVLTLSQGLLASTPEGRTAYVEADMLDPASILDAPELRDTLDLTRPVALTVIAIVHFVLDEDDAVGIVRRLLEPLPSGSYLAMSIGTAEFAPQEVGRVAREYAARNMPMRLRTHAEAEEFFEGLELVEPGIVQVHKWHPDAATADGIRDEDIAMYGAVARKP
